Values of other authors, collected in article PMC3433420.
Read-outs that look alike come from different tables or passages of the source.

Experiments:
Conditions in all cases: cited from earlier work
PIK3R3-C (Homo sapiens) [1] = target: PIK3R3-C (Homo sapiens) (UniProt Q92569)
PLCG1-C (Homo sapiens) [2] = target: PLCG1-C (Homo sapiens) (UniProt P19174)
SYK-NC (Homo sapiens) = SYK-NC (Homo sapiens) (UniProt P43405)
HCK (Homo sapiens) = HCK (Homo sapiens) (UniProt P08631)
PIK3R1-NC (Homo sapiens) [3] = target: PIK3R1-NC (Homo sapiens) (UniProt P27986)
NCK2 (Homo sapiens) = NCK2 (Homo sapiens) (UniProt O43639)
SH2D3C (Homo sapiens) = SH2D3C (Homo sapiens) (UniProt Q8N5H7)
PIK3R2-NC (Homo sapiens) [4] = target: PIK3R2-NC (Homo sapiens) (UniProt O00459)
PIK3R2-NC (Homo sapiens) [5] = target: PIK3R2-NC (Homo sapiens) (UniProt O00459); remark: listed apart in the source
PLCG1-C (Homo sapiens) [6] = target: PLCG1-C (Homo sapiens) (UniProt P19174); remark: listed apart in the source
TENC1 (Homo sapiens) = TENC1 (Homo sapiens) (UniProt Q63HR2)
SHC2-PTB (Homo sapiens) [7] = target: SHC2-PTB (Homo sapiens) (UniProt P98077)
PIK3R1-NC (Homo sapiens) [8] = target: PIK3R1-NC (Homo sapiens) (UniProt P27986); remark: listed apart in the source
SHC1-PTB (Homo sapiens) = SHC1-PTB (Homo sapiens) (UniProt P29353)
BCAR3 (Homo sapiens) = BCAR3 (Homo sapiens) (UniProt O75815)
RASA1-NC (Homo sapiens) = RASA1-NC (Homo sapiens) (UniProt P20936)
PIK3R2-NC (Homo sapiens) [9] = target: PIK3R2-NC (Homo sapiens) (UniProt O00459); remark: listed apart in the source
VAV3 (Homo sapiens) = VAV3 (Homo sapiens) (UniProt Q9UKW4)
PLCG2-NC (Homo sapiens) = PLCG2-NC (Homo sapiens) (UniProt P16885)
PIK3R3-C (Homo sapiens) [10] = target: PIK3R3-C (Homo sapiens) (UniProt Q92569); remark: listed apart in the source
BLK (Homo sapiens) = BLK (Homo sapiens) (UniProt P51451)
PIK3R1-C (Homo sapiens) = PIK3R1-C (Homo sapiens) (UniProt P27986)
ABL1 (Homo sapiens) = ABL1 (Homo sapiens) (UniProt P00519)
SOCS1 (Homo sapiens) = SOCS1 (Homo sapiens) (UniProt O15524)
SH2B3 (Homo sapiens) = SH2B3 (Homo sapiens) (UniProt Q9UQQ2)
TNS1 (Homo sapiens) = TNS1 (Homo sapiens) (UniProt Q9HBL0)
SHC2-PTB (Homo sapiens) [11] = target: SHC2-PTB (Homo sapiens) (UniProt P98077); remark: listed apart in the source
SOCS5 (Homo sapiens) = SOCS5 (Homo sapiens) (UniProt O75159)
VAV1 (Homo sapiens) = VAV1 (Homo sapiens) (UniProt P15498)
SOCS3 (Homo sapiens) = SOCS3 (Homo sapiens) (UniProt O14543)
SOCS3 (Homo sapiens), sequence (O14543 41-147): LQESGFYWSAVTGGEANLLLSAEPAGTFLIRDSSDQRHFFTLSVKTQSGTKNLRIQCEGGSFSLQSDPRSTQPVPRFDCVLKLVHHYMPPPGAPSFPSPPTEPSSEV

PIK3R2-NC (Homo sapiens), sequence (O00459 325-721): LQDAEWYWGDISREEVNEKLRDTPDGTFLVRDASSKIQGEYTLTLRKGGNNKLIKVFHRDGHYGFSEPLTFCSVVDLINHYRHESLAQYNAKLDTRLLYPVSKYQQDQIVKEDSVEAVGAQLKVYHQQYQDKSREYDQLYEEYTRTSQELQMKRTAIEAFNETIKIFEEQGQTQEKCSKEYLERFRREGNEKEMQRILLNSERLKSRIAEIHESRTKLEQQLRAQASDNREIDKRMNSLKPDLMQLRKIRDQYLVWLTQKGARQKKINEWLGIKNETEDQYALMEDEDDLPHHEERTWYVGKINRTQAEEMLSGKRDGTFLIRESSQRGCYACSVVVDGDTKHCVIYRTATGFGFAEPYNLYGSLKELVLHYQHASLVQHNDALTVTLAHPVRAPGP
PLCG1-C (Homo sapiens), sequence (P19174 545-761): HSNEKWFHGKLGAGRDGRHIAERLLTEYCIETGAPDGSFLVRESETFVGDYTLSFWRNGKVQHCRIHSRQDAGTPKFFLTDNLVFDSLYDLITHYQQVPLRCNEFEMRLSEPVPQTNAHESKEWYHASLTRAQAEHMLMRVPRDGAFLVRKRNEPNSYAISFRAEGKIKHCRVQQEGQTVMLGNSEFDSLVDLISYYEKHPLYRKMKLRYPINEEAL
SHC2-PTB (Homo sapiens), sequence (P98077 482-582): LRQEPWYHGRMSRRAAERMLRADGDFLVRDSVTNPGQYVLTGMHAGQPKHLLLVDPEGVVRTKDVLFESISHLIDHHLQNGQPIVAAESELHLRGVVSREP
PIK3R1-NC (Homo sapiens), sequence (P27986 328-723): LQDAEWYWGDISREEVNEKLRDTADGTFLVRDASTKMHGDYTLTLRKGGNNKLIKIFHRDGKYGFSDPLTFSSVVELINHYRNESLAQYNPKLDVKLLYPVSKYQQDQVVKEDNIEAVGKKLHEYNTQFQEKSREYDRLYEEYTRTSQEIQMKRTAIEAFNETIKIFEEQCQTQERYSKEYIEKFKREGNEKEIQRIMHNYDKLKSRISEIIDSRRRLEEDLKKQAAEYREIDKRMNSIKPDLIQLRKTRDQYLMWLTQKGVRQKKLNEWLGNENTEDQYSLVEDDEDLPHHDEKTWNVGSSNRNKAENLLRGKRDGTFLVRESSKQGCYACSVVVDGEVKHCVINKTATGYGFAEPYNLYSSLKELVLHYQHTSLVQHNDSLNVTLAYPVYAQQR
SOCS5 (Homo sapiens), sequence (O75159 376-481): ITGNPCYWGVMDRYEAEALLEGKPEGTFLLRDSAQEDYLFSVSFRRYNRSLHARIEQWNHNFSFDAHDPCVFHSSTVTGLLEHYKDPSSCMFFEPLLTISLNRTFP
NCK2 (Homo sapiens), sequence (O43639 280-380): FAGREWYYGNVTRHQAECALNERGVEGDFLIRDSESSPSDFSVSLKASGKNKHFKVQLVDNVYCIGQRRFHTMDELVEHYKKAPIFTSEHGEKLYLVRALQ
SOCS1 (Homo sapiens), sequence (O15524 74-179): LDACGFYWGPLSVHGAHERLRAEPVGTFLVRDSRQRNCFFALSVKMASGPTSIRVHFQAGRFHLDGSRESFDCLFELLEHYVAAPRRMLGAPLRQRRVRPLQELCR
PLCG2-NC (Homo sapiens), sequence (P16885 527-740): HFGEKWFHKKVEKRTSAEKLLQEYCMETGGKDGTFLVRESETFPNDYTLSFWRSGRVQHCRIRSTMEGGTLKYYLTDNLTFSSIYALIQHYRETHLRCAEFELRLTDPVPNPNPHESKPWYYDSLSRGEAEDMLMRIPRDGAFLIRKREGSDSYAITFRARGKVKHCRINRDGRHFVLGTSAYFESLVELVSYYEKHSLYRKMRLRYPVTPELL
BCAR3 (Homo sapiens), sequence (O75815 149-258): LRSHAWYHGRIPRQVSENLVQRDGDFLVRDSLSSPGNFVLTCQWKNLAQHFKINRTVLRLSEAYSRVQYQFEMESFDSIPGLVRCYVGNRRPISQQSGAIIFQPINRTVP
SHC1-PTB (Homo sapiens), sequence (P29353 483-583): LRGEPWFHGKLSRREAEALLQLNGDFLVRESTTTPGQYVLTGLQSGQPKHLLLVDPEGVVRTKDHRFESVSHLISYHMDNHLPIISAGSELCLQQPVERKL
VAV3 (Homo sapiens), sequence (Q9UKW4 667-771): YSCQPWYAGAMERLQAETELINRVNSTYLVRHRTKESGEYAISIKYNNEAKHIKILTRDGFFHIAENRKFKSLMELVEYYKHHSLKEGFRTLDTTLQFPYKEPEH
TNS1 (Homo sapiens), sequence (Q9HBL0 1562-1681): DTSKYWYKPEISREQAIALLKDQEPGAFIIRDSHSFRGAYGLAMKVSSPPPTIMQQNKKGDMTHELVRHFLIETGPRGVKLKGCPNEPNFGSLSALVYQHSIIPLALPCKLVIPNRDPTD
VAV1 (Homo sapiens), sequence (P15498 666-770): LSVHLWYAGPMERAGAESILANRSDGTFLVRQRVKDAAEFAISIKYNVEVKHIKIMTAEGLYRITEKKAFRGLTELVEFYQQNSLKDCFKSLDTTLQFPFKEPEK
ABL1 (Homo sapiens), sequence (P00519 122-222): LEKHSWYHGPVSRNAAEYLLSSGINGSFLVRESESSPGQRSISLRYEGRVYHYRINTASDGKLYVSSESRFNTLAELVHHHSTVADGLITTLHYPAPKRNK
RASA1-NC (Homo sapiens), sequence (P20936 176-446): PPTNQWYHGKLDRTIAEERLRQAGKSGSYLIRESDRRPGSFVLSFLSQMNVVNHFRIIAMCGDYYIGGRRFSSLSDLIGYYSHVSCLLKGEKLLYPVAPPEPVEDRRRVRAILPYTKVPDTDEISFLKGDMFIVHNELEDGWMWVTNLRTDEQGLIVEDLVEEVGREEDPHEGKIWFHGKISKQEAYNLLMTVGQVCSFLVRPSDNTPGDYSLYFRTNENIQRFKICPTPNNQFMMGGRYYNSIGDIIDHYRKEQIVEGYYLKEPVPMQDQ
TENC1 (Homo sapiens), sequence (Q63HR2 1135-1252): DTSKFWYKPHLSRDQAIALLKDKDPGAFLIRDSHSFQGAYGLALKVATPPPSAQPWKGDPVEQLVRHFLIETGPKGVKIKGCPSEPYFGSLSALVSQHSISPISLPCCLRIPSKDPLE
BLK (Homo sapiens), sequence (P51451 119-225): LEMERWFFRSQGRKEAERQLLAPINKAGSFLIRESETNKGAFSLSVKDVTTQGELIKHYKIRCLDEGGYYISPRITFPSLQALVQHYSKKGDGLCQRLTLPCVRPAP
PIK3R1-C (Homo sapiens), sequence (P27986 328-723): as the sequence (P27986 328-723) above
HCK (Homo sapiens), sequence (P08631 139-246): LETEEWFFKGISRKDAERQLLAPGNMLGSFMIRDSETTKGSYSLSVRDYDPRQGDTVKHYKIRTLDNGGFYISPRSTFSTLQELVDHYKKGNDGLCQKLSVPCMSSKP
SH2D3C (Homo sapiens), sequence (Q8N5H7 215-324): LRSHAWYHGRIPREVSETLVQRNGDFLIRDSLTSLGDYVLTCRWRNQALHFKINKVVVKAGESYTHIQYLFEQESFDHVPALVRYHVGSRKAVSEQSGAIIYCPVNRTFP
SH2B3 (Homo sapiens), sequence (Q9UQQ2 359-467): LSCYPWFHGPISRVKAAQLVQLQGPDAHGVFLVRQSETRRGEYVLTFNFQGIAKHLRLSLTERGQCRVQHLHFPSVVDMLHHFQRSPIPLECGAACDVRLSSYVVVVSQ

Substance: …pYEEMRAFQ
- apparent Kd (screen) (PIK3R3-C (Homo sapiens) [1]): 0.012 µM
- apparent Kd (screen) (PLCG1-C (Homo sapiens) [2]): 0.321 µM
- apparent Kd (screen) (SYK-NC (Homo sapiens)): 1.1 µM
- apparent Kd (screen) (HCK (Homo sapiens)): 0.499 µM
- apparent Kd (screen) (PIK3R1-NC (Homo sapiens) [3]): 0.049 µM
- apparent Kd (screen) (NCK2 (Homo sapiens)): 1.37 µM

Substance: …pYLIPQQGFd
- apparent Kd (screen) (SH2D3C (Homo sapiens)): 2 µM
- apparent Kd (screen) (PIK3R2-NC (Homo sapiens) [4]): 0.352 µM

Substance: …pYLVPQQGF
- apparent Kd (screen) (PIK3R2-NC (Homo sapiens) [5]): 2 µM
- apparent Kd (screen) (PLCG1-C (Homo sapiens) [6]): 1.46 µM
- apparent Kd (screen) (TENC1 (Homo sapiens)): 2 µM
- apparent Kd (screen) (SHC2-PTB (Homo sapiens) [7]): 2 µM
- apparent Kd (screen) (PIK3R1-NC (Homo sapiens) [8]): 1.64 µM
- apparent Kd (screen) (SHC1-PTB (Homo sapiens)): 2 µM

Substance: …pYWDQDPPE
- apparent Kd (screen) (BCAR3 (Homo sapiens)): 2 µM
- apparent Kd (screen) (RASA1-NC (Homo sapiens)): 2 µM
- apparent Kd (screen) (PIK3R2-NC (Homo sapiens) [9]): 2 µM
- apparent Kd (screen) (VAV3 (Homo sapiens)): 2 µM
- apparent Kd (screen) (PLCG2-NC (Homo sapiens)): 0.263 µM
- apparent Kd (screen) (PIK3R3-C (Homo sapiens) [10]): 2 µM
- apparent Kd (screen) (BLK (Homo sapiens)): 2 µM
- apparent Kd (screen) (PIK3R1-C (Homo sapiens)): 2 µM
- apparent Kd (screen) (ABL1 (Homo sapiens)): 1.84 µM
- apparent Kd (screen) (SOCS1 (Homo sapiens)): 1.92 µM
- apparent Kd (screen) (SH2B3 (Homo sapiens)): 2 µM
- apparent Kd (screen) (TNS1 (Homo sapiens)): 2 µM
- apparent Kd (screen) (SHC2-PTB (Homo sapiens) [11]): 0.457 µM
- apparent Kd (screen) (SOCS5 (Homo sapiens)): 2 µM
- apparent Kd (screen) (VAV1 (Homo sapiens)): 2 µM
- apparent Kd (screen) (SOCS3 (Homo sapiens)): 2 µM
